{"source": "the nanobody polyreactivity screen of Harvey et al. (2022)", "data": [{"assay": "yeast display, Sf9 membrane polyspecificity reagent, FACS + sequencing; frameworks hold sequencing errors", "method_in_brief": "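Using colony PCR, genes from sorted yeast display clones were amplified, then sequenced on MiSeq at 2 × 250 and filtered by CDR length. The clones had been stained with 10% biotinylated, detergent-solubilized Sf9 membrane reagent for 1 hour at 4 °C and sorted by FACS into low and high (top ~1%) gates on anti-HA and streptavidin fluorescence. Polyreactivity labels come from the gate of origin.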", "values": [{"sequence": "QVQLVESGGGLVQAGGSLRLSCAASGSIFAGYAMGWYRQAPGKERELVAAISSSGSRTYYADSVKGRFTISRDNAKNTVYLHMNSLKPEDTAVYYCATQSWVRYGQPEFDYWGQGTQVTVSS", "polyreactivity (PSR sort gate)": "high polyreactivity"}, {"sequence": "QVQLVESGGGLVQAGGSLRLSCAASGSIFAGYAMGWYRQAPGKERELVAAITSSGGSTYYADSVKGRFTISRDNAKNTVYLQMTSLKPEDTAVYYCAKDKLILYRVGSDYWGQGTQVTVSS", "polyreactivity (PSR sort gate)": "low polyreactivity"}, {"sequence": "QVQLVESGGGLVQAGGSLRLSCAASGSIFAHYAMGWYRQAPGKERELVAAISWGGGRTYYADSVKGRFTISRDNAKNTVYLQMNSLKPEDTAVYYCAARAANKSNYWGQGTQVTVSS", "polyreactivity (PSR sort gate)": "low polyreactivity"}, {"sequence": "QVQLVESGGGLVQAGGSLRLSCAASGSIFAINAMGWYRQAPGKERELVAAIRSGGRTYSADSEKGRFTISRDNAKITVYLQMNSLKPEDTAVYYCTDGGKWIGSDYWGQGTQVTVSS", "polyreactivity (PSR sort gate)": "high polyreactivity"}, {"sequence": "QVQLVESGGGLVQAGGSLRLSCAASGSIFAINAMGWYRQAPGKERELVAGITSGGSTYYADSVKGRFTISRDNAKNTVYLQMNSLKPEDTAVYYCAVQVVRSWLVTYYYWGQGTQVTVSS", "polyreactivity (PSR sort gate)": "high polyreactivity"}, {"sequence": "QVQLVESGGGLVQAGGSLRLSCAASGSIFAIYTMGWYRQAPGKVRELVAGITKSGGNTYYADSVKGRFTISRDNAKNTVYLQMNSLKPEDTSVYYCAASQYEYYDGWYRYDYWGQGTQVTVSS", "polyreactivity (PSR sort gate)": "high polyreactivity"}, {"sequence": "QVQLVESGGGLVQAGGSLRLSCAASGSIFAKYAMGWYRQAPGKERELVAAITSSGDSTNYADSVKGRFTISRDNAKNTVYLQMNSLKPEDTAVYYCAADDQYGYVYYAFWGYDYWGQGTQVTVSS", "polyreactivity (PSR sort gate)": "low polyreactivity"}, {"sequence": "QVQLVESGGGLVQAGGSLRLSCAASGSIFAKYPMGWYRQAPGKERELVAAISSGGSTYYADSVKGRFTISRDNAKNTVYLQMNSLKPEDTAVYYCNKPYGKETRYTFNVWYEYNYWGQGTQVTVSS", "polyreactivity (PSR sort gate)": "low polyreactivity"}, {"sequence": "QVQLVESGGGLVQAGGSLRLSCAASGSIFANNAMGWYRQAPGKERELVAAIDWSAASTYYADSVKGRFTISRDNAKNTVYLQMNSLKPEDTAVYYCNARALGGGHIGFNHYVYGFGYWGQGTQVTVSS", "polyreactivity (PSR sort gate)": "low polyreactivity"}, {"sequence": "QVQLVESGGGLVQAGGSLRLSCAASGSIFARNAMGWYRQAPGTERELVASITWSGASTYYADSVKGRFTMSRDNATNTVSLQLNSLKPDDTAVYYCAATAQKLSLDYSSYEYWGQGTQVTVSS", "polyreactivity (PSR sort gate)": "low polyreactivity"}, {"sequence": "QVQLVESGGGLVQAGGSLRLSCAASGSIFARYAIGWYRQAPGKERELVAAISSDGSTYYADSVKGRFTISRDNAKNTVYLQMNSLKPEDTAVYYCAARAFYYAGDWYGYWGQGTQVTVSS", "polyreactivity (PSR sort gate)": "high polyreactivity"}, {"sequence": "QVQLVESGGGLVQAGGSLRLSCAASGSIFARYTMGWYRQAPGKERELVASITWRTGSTYYADSVKGRFTISRDNAKNTVYLQMNSLKPEDTAVYYCNKAYTITQYGWIPLGYWGQGTQVTVSS", "polyreactivity (PSR sort gate)": "high polyreactivity"}, {"sequence": "QVQLVESGGGLVQAGGSLRLSCAASGSIFASNALGWYRQAPGKERELVAAIDTSGGSTYYADSVKGRFTISRDNAKNTVYLQMNSLKPEDTAVYYCNTDWRDEYYPRYRASKFDYWGQGTQVTVSS", "polyreactivity (PSR sort gate)": "low polyreactivity"}, {"sequence": "QVQLVESGGGLVQAGGSLRLSCAASGSIFASNAMGWYRQAPGKDTELVAAITYSGGSTYYADSVKGRFTISRDNAKKTVDLQMNSLKPEDTAVYYCAADVSVPQRYDYWGQGTQVTVSS", "polyreactivity (PSR sort gate)": "low polyreactivity"}, {"sequence": "QVQLVESGGGLVQAGGSLRLSCAASGSIFASNAMGWYRQAPGKEREFVAAITWRTDRTHYADSVKGRFTISRDNAKNTVYLQMNSLKPEDTAVYYCAADTWFYRFYYWGQGTQVTVSS", "polyreactivity (PSR sort gate)": "high polyreactivity"}, {"sequence": "QVQLVESGGGLVQAGGSLRLSCAASGSIFASNAMGWYRQAPGKERELVAAINSGDSTNYADSVKGRFTISRDNAKNTVYLQMNSLKPEDTAVYFCARGLEERYDYWGQGTQVTVSS", "polyreactivity (PSR sort gate)": "low polyreactivity"}, {"sequence": "QVQLVESGGGLVQAGGSLRLSCAASGSIFASYAMGWYRQAPGKERELVAAIRSSGGRTYYADSVKGRFTISRDNAKYTVYLQMYSLKPEDTAVYYCNDRRPGYRPYGYDYWGQGTQVTVSS", "polyreactivity (PSR sort gate)": "high polyreactivity"}, {"sequence": "QVQLVESGGGLVQAGGSLRLSCAASGSIFASYAMGWYRQAPGKERELVAAITTSGGRTYYADSVKGRFTISRDNAKNTVYLQMNSLKPEDTAVYYCARRPRGGRYAYYSWGQGTQVTVSS", "polyreactivity (PSR sort gate)": "high polyreactivity"}, {"sequence": "QVQLVESGGGLVQAGGSLRLSCAASGSIFASYAMGWYRQAPGKERELVATITQSGGRTYYADSVKGRFTISRDNAKNTVYLQMNSLKPEDTAVYYCARRYWGGGYRMGYWGQGTQVTVSS", "polyreactivity (PSR sort gate)": "high polyreactivity"}, {"sequence": "QVQLVESGGGLVQAGGSLRLSCAASGSIFASYVMGWYRQAPGKERELVAAITSRGTSTYYADSVKGRFTISRDNAKNTVYLQMNSLKPEDTAVYYCAARLYGSAPQHEYWGQGTQVTVSS", "polyreactivity (PSR sort gate)": "low polyreactivity"}, {"sequence": "QVQLVESGGGLVQAGGSLRLSCAASGSIFAVNAMGWYRPAPGKERELVAAITSGGITYYADSVKGRFTISRDNAKNTVYLQMNSLKPEDTAVYYCATVFSVQGWYFGMNYWGQGTQVTVSS", "polyreactivity (PSR sort gate)": "low polyreactivity"}, {"sequence": "QVQLVESGGGLVQAGGSLRLSCAASGSIFAVNAMGWYRQAPGKERELVAAIDWSDGITYYADSVKGRFTISRDNAKNTVYLQMNSLKPEDTAVYYCAADATAYGWYVEQFSFYDNDYWGQGTQVTVSS", "polyreactivity (PSR sort gate)": "high polyreactivity"}, {"sequence": "QVQLVESGGGLVQAGGSLRLSCAASGSIFAVYAMGWYRQAPGKERELVAASSTDYAESVKGRFTISRDNAKNTVFLQLNRLKPEDTAVYYCAKVGFGIPGGFYYWGQGTQVTVSS", "polyreactivity (PSR sort gate)": "low polyreactivity"}, {"sequence": "QVQLVESGGGLVQAGGSLRLSCAASGSIFAVYAMGWYRQAPGKERELVAVITRSGGSTYYADSVKGRFTISRDNAKNTVYLQMISLKPEDTAVYYCAARTGYGYTRYEYWGQGTQVTVSS", "polyreactivity (PSR sort gate)": "high polyreactivity"}, {"sequence": "QVQLVESGGGLVQAGGSLRLSCAASGSIFAVYVMGWYRQAPGKDRELVAAIRRGGTTTYADSVKGRFTISRDNAKTTVYLQMNSLKPEDTAVYYCAADSYARYLYSYYSPYDYWGQGTQVTVSS", "polyreactivity (PSR sort gate)": "low polyreactivity"}, {"sequence": "QVQLVESGGGLVQAGGSLRLSCAASGSIFAWYALGWYRQAPGKERELVADITQSGGSTYYADSVKGRFTISRDNAKNTVYLQMNSLKPEDTAVYYCVDYWYNYLQSGWEDDYWGQGTQVTVSS", "polyreactivity (PSR sort gate)": "low polyreactivity"}, {"sequence": "QVQLVESGGGLVQAGGSLRLSCAASGSIFAYAMGWYRKAPGKEMELVAAISGGSTYYADSVKGRFTISRDNAKNTVYLQMNSVKPEDTAVYYCAADLDDERYYWGQGTQVTVSS", "polyreactivity (PSR sort gate)": "low polyreactivity"}, {"sequence": "QVQLVESGGGLVQAGGSLRLSCAASGSIFAYAMGWYRQAHGKERELVAAISGGSTYYADSVKGRFTISRENAKNTVYLQMNSLKPEETAVYYCAADLDDERYYWGQGTQVTVSS", "polyreactivity (PSR sort gate)": "low polyreactivity"}, {"sequence": "QVQLVESGGGLVQAGGSLRLSCAASGSIFAYNAMGWYRQAPGKEREFVASISSNGDSTFYADSVKGRFTISRDNAKNTVYLQMNSLKPEDTAVYYCAADVIAWDGYLWQRYDYWGQGTQVTVSS", "polyreactivity (PSR sort gate)": "low polyreactivity"}, {"sequence": "QVQLVESGGGLVQAGGSLRLSCAASGSIFAYNAMGWYRQAPGKERELVAANSYSGASTYYADSVKGRFTISRDNAKNTVYLQMNSLKPEDTEVYYCAATSRRRGTKGYWQVWPRFDYWGQGTQVTVSS", "polyreactivity (PSR sort gate)": "high polyreactivity"}, {"sequence": "QVQLVESGGGLVQAGGSLRLSCAASGSIFAYYAIGWYRQAPGKEREFVAAISISGGSTNYADSVKRRFTISRDNAKNTVYLQMNSLKPEDTAVYSCAATSRWSSFGFYGQYNFWGQGTQVTVSS", "polyreactivity (PSR sort gate)": "high polyreactivity"}, {"sequence": "QVQLVESGGGLVQAGGSLRLSCAASGSIFAYYAMGWYREAPGKERELVADITSSGGITYSADSVKGRFTISRDNAKNTVYLLMNSLKPEDTAGYYCNADSWAIGGGSYPYDYWGQGTKVTVSS", "polyreactivity (PSR sort gate)": "low polyreactivity"}, {"sequence": "QVQLVESGGGLVQAGGSLRLSCAASGSIFAYYAMGWYRQAPGKERELVAAISRRGGSTYYADSVKGRFTISRDNAKNTVYLQMNSLKPEDTAVYYCAADGGGTTSLEYGNDYWGQGTQVTVSS", "polyreactivity (PSR sort gate)": "high polyreactivity"}, {"sequence": "QVQLVESGGGLVQAGGSLRLSCAASGSIFAYYAMGWYRQAPGKERELVAAITSGDSTYYADSVKGRFTISRDNAKNTVYLQMNSLKPEDSAVYYCAADVSWRSNWYDYWGQGTQVTVSS", "polyreactivity (PSR sort gate)": "low polyreactivity"}, {"sequence": "QVQLVESGGGLVQAGGSLRLSCAASGSIFAYYVMGWYRKAPGKERELVAAITSVGSTNYADSVKGRFTISRDNAKNTVYLQMNCLKPEDTAVYSCAAVQYQASYYYWGQGTQVTLSS", "polyreactivity (PSR sort gate)": "low polyreactivity"}, {"sequence": "QVQLVESGGGLVQAGGSLRLSCAASGSIFDANAMGWYRQAPGKERELVATIRIGGSTNYADSVKGRFRISRDNAKNTVYLQMYSLKPEDTAGYYCAASRQFRSRRFYYWGQGTQVTVSS", "polyreactivity (PSR sort gate)": "high polyreactivity"}, {"sequence": "QVQLVESGGGLVQAGGSLRLSCAASGSIFDDNAMGWYRQAPGKERELVAAISANDGSTYYADSAKGRFTISRDNAKNTVYLQMNTLKPEDTAVYYCAAERYLSFDRYLYEYYYWGQGTQVTVSS", "polyreactivity (PSR sort gate)": "low polyreactivity"}, {"sequence": "QVQLVESGGGLVQAGGSLRLSCAASGSIFDDNAMGWYRQAPGKERELVATINYGGGRTSYADSVKGRSTISRDNAKNTVYLQMNSLKPEDTAVYYCAADPRQKEDYWGQGTQVTVSS", "polyreactivity (PSR sort gate)": "low polyreactivity"}, {"sequence": "QVQLVESGGGLVQAGGSLRLSCAASGSIFDDYAMGGYRQAHGKERELVAAISSSGTSTYYADSVKGRFTISRDNAKNTVYLQMNCLKPEDTAVYYCAARSAILKSAYLMDYWGQGTQVTVSS", "polyreactivity (PSR sort gate)": "low polyreactivity"}, {"sequence": "QVQLVESGGGLVQAGGSLRLSCAASGSIFDDYAMGWYRQAPGKERELVAAISSSGTSTYYADSVKGRFTISRDNAKNTVYLQMNSLKPEDTAVYYCAKYAGVYEYDYWGQGTQVTVSS", "polyreactivity (PSR sort gate)": "low polyreactivity"}, {"sequence": "QVQLVESGGGLVQAGGSLRLSCAASGSIFDDYAMGWYRQSPGQERELVAAISWSGGSTYYADSVKGRFTISRDNAKNTDYLQMNSLKPDDTAVYYCAGYDYDYLYGEYYWGQGTQVTVSS", "polyreactivity (PSR sort gate)": "low polyreactivity"}, {"sequence": "QVQLVESGGGLVQAGGSLRLSCAASGSIFDFNAMGWYRQVPGKERELVAAITSGGSTNYADSVKGRFTISRDNAKNTVYLQMNSLKPEDTAVYYCAARPARGASQGGYVRPWWYDYWGQGTQVTVSS", "polyreactivity (PSR sort gate)": "low polyreactivity"}, {"sequence": "QVQLVESGGGLVQAGGSLRLSCAASGSIFDFYAMGWYRQAPGKERELVAAITWSGDTTYYADSVKGRFTISRDNAKNTVYLQMNCLKPEDTAVYYCAAEGWYWWYGRDYYWGQGTQVTVSS", "polyreactivity (PSR sort gate)": "high polyreactivity"}]}]}
